Test results from patent EP4755403A1 (Jiangsu Hengrui Pharmaceuticals Co., Ltd., dated 2025).

B1: P19 (19L2H2) (antibody, human IgG1, kappa, V domains shown)
VH: EVKLVESGGGLVQPGGSLRLSCAASGFTFSDYYMAWVRQAPGKGLEWVANINYDGSSTYYLDSLKSRFTISRDNAKNSLYLQMNSLRAEDTAVYYCARGGDYWDAMDYWGQGTTVTVSS
VL: DIQMTQSPSSLSASVGDRVTITCRASQDISKYLNWYQQKPGKAPKLLIYYTSSLHSGVPSRFSGSGSGTDYTLTISSLQPEDFATYYCQQGNRLPRTFGGGTKVEIKR
notes: Humanized anti-PSMA antibody from mouse mAb19-1 (hu19-1 VH2 + hu19-1 VL2), human IgG1 / kappa constant regions; also called antibody P19
B2: ADC-2 (P19-9-A, n = 7.41) (antibody, human IgG1, kappa, V domains shown)
VH: EVKLVESGGGLVQPGGSLRLSCAASGFTFSDYYMAWVRQAPGKGLEWVANINYDGSSTYYLDSLKSRFTISRDNAKNSLYLQMNSLRAEDTAVYYCARGGDYWDAMDYWGQGTTVTVSS
VL: DIQMTQSPSSLSASVGDRVTITCRASQDISKYLNWYQQKPGKAPKLLIYYTSSLHSGVPSRFSGSGSGTDYTLTISSLQPEDFATYYCQQGNRLPRTFGGGTKVEIKR
modifications: drug-linker 9-A coupled via sulfhydryl groups on cysteine; mean n = 7.41 per antibody (positions not stated)
B3: H-AB-P1 (AB-PG1-XG1-006) (antibody, V domains shown)
VH: QVQLVESGGGVVQPGRSLRLSCAASGFAFSRYGMHWVRQAPGKGLEWVAVIWYDGSNKYYADSVKGRFTISRDNSKNTQYLQMNSLRAEDTAVYYCARGGDFLYYYYYGMDVWGQGTTVTVSS
VL: DIQMTQSPSSLSASVGDRVTITCRASQGISNYLAWYQQKTGKVPKFLIYEASTLQSGVPSRFSGGGSGTDFTLTISSLQPEDVATYYCQNYNSAPFTFGPGTKVDIK
B4: ADC-1 (P19-9-A, n = 5.55) (antibody, human IgG1, kappa, V domains shown)
VH: EVKLVESGGGLVQPGGSLRLSCAASGFTFSDYYMAWVRQAPGKGLEWVANINYDGSSTYYLDSLKSRFTISRDNAKNSLYLQMNSLRAEDTAVYYCARGGDYWDAMDYWGQGTTVTVSS
VL: DIQMTQSPSSLSASVGDRVTITCRASQDISKYLNWYQQKPGKAPKLLIYYTSSLHSGVPSRFSGSGSGTDYTLTISSLQPEDFATYYCQQGNRLPRTFGGGTKVEIKR
modifications: drug-linker 9-A coupled via sulfhydryl groups on cysteine; mean n = 5.55 per antibody (positions not stated)

Legend:
[1] = molecular target: T1, human PSMA (prostate specific membrane antigen) on tumor cells (human, UniProt Q04609 1-750); test: cell-based or functional assay
T1 sequence (Q04609 whole entry): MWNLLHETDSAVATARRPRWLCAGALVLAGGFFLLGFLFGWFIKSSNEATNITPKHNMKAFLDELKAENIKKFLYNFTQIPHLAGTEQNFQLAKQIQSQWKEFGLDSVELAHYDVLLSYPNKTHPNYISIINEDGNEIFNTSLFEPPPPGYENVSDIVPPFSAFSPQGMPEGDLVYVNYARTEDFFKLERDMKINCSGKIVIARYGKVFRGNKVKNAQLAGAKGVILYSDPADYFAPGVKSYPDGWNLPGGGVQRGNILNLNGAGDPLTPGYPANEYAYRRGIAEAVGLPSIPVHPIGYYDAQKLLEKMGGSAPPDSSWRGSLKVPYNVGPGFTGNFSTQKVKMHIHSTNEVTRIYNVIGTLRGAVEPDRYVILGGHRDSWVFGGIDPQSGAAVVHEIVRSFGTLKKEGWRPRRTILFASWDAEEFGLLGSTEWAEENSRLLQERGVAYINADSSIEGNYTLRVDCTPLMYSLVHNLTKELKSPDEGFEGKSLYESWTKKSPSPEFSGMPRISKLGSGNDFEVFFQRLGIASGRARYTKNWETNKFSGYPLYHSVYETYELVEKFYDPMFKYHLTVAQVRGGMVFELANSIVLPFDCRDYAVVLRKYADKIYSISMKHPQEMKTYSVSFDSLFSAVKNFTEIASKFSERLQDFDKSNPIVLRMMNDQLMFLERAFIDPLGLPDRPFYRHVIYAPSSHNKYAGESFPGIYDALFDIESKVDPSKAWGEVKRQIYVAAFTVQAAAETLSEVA

[2] = molecular target: T2, monkey PSMA-His (ACRO, PSA-C5247) (monkey (cynomolgus), UniProt A0A2K5VNZ0 44-750); test: SPR (Biacore T200), antibody captured on Protein A chip, antigen flowed over, 1:1 model
T2 construct: Commercial protein; also called cynomolgus monkey PSMA; not shown: His tag

[3] = molecular target: T3, human PSMA-His (ACRO, PSA-H52H3) (human, UniProt Q04609 44-750); test: as above
T3 construct: Commercial protein; not shown: His tag
T3 sequence (Q04609 44-750 limits assumed): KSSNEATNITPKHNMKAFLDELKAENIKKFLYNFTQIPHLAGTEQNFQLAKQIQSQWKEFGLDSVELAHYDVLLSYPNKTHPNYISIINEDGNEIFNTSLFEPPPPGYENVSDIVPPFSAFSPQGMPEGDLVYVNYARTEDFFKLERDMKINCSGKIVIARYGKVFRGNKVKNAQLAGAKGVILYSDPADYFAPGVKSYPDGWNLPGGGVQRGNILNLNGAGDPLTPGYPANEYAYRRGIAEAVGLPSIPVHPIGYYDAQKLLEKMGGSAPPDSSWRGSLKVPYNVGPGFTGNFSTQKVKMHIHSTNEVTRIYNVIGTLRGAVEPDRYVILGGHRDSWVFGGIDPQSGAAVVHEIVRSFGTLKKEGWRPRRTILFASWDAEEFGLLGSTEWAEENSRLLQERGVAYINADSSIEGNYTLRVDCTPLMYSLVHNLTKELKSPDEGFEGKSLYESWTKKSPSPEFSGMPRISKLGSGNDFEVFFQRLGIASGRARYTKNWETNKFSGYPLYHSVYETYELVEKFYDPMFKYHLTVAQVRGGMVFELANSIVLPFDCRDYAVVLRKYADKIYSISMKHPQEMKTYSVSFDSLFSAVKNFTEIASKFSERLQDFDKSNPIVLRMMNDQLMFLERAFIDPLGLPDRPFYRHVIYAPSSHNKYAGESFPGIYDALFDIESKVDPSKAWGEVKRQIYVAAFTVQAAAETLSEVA

[4] = molecular target: T1, human PSMA (prostate specific membrane …); test: flow cytometry on 22RV1 cells, FITC anti-human IgG secondary
[5] = molecular target: T4, mouse PSMA-His (ACRO, PSA-M5245) (mouse, UniProt O35409 45-752); test: SPR (Biacore T200), antibody captured on Protein A chip, antigen flowed over
T4 construct: Commercial protein; not shown: His tag
T4 sequence (O35409 45-752): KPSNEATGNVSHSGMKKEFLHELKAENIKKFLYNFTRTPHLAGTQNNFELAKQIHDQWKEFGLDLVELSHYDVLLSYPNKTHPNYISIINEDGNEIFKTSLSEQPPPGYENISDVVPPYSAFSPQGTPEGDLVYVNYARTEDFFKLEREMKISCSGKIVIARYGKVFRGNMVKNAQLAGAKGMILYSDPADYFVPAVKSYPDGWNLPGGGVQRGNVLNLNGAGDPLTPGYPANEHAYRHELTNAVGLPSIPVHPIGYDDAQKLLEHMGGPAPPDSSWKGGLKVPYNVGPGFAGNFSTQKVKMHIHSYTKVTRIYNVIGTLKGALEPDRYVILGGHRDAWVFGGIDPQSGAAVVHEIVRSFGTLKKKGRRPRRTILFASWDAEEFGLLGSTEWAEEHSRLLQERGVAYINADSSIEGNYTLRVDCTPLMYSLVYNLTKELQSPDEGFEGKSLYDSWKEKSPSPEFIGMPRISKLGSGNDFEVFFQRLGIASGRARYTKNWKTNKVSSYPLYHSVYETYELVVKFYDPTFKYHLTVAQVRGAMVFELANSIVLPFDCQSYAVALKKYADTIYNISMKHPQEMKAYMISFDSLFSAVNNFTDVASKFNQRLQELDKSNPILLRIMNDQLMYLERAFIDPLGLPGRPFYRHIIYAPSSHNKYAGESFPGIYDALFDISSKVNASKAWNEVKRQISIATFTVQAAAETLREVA

[6] = molecular target: T1, human PSMA (prostate specific membrane …); test: flow cytometry on 22RV1 cells, FITC anti-human IgG secondary; remark: listed apart in the source
[7] = molecular target: T1, human PSMA (prostate specific membrane …); test: flow cytometry on LNCaP cells, FITC anti-human IgG secondary
[8] = molecular target: T1, human PSMA (prostate specific membrane …); test: as above; remark: listed apart in the source
[9] = molecular target: T1, human PSMA (prostate specific membrane …); test: cell-based or functional assay; remark: listed apart in the source

| Binder | DT3C endocytosis assay on LNCaP cells, IC50 [1] [nM] | Kd [2] [nM] | Kd [3] [nM] | koff [3] [s⁻¹] | kon [3] [M⁻¹ s⁻¹] | EC50 [4] [nM] | binding result [5] | EC50 [6] [nM] | EC50 [7] [nM] | EC50 [8] [nM] | killing of 22RV1 (+) cells, CellTiter-Glo, IC50 [9] [nM] | killing of LNCaP (+++) cells, CellTiter-Glo, IC50 [9] [nM] |
| --- | --- | --- | --- | --- | --- | --- | --- | --- | --- | --- | --- | --- |
| B1 | 0.25 | 5.08 | 1.3 | 7.92e-05 | 61100 | 0.0719 | no binding | 0.637 | 0.305 | 2.09 |  |  |
| B2 |  |  |  |  |  | 0.0812 |  |  | 0.307 |  | 6.92 | 2.83 |
| B3 | 2.71 |  |  |  |  |  |  |  |  |  |  |  |
| B4 |  |  |  |  |  | 0.114 |  |  | 0.442 |  | 29.5 | 8.52 |
